# In the supplement of paper PMC12764529:
# ± gives the half width of the 95% confidence interval.
# Columns and labels:
# [1] = folding stability dG unfold from trypsin proteolysis; higher = more stable
# Method in brief: (§1)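 Unfolding free energy was derived, per protease or combined, by relating Bayesian-fitted K50 values from sequencing counts to a sequence-predicted unfolded-state K50 and a shared folded-state K50. The underlying digests exposed cysteine-free mini-proteins under 80 residues, in a PA-tagged cDNA display construct, to trypsin and chymotrypsin at 11 threefold-diluted concentrations and to a no-protease condition. A filter kept only designs with AlphaFold2 dimer inter-PAE above 15.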
# [2] = folding stability dG unfold from chymotrypsin proteolysis; higher = more stable
# Method in brief: as §1
# [3] = folding stability dG unfold (combined trypsin and chymotrypsin); higher = more stable
# Method in brief: as §1
Sequence,folding stability dG unfold [1],folding stability dG unfold [2],folding stability dG unfold [3]
SAGGSALKDFPLEEVEKVILVDLPDGKPALLVLLKGPPVVVLYPLESGKPIFIDAPLEEVLEFLLSSAGGSA [r15_810_TrMRF],2.68 ± 0.05 kcal/mol,2.892 ± 0.014 kcal/mol,2.83 ± 0.044 kcal/mol
SAGGSAGGNIDPDDITEVEEETYNFPNGWHIKIDYFRVPDDGQPIMKMEIEPMPPVKPDPNDKKSAGGSAGG [r6_758_TrROS],-0.1 ± 0.11 kcal/mol,1.23 ± 0.14 kcal/mol,0.627 ± 0.25 kcal/mol
SAGGKTTVLIITENPDGTPKAIPIPLDELDIEEIVELIKELVEEGRKLKVFVPADTPPELIKAIKEAASAGG [r13_251_TrMRF],3.4 ± 0.087 kcal/mol,3.2 ± 0.067 kcal/mol,3.31 ± 0.056 kcal/mol
SAGGSAGGSFEFPENRPNAKVKVVVQRPDGSPEEFEAEVLPDGTVTLDLPDYPIDRILSVEFGSAGGSAGGS [r12_477_TrMRF],0.0306 ± 0.12 kcal/mol,-0.377 ± 0.19 kcal/mol,-0.221 ± 0.17 kcal/mol
SAGGPLQIKVEPLNRDPKDGKREVRIEITFPEEDMKKNPENRQLAEYIAKSLAKEPGADKVEVDIHWSAGGS [r16_416_TrROS],-0.0287 ± 0.056 kcal/mol,0.441 ± 0.081 kcal/mol,0.274 ± 0.095 kcal/mol
SAGGSAGGSMVIRVTTKDGEEVELEIEGMSLEEIKALLPEGVKEVKIEKVEVEPVEVEEEEEESAGGSAGGS [r12_767_TrROS_Hall],1.31 ± 0.1 kcal/mol,1.99 ± 0.27 kcal/mol,1.72 ± 0.21 kcal/mol
SAGGSAGGSATPPDSSVSVKVEITVGGEKKLVTATLTTLPNGTTSLTLNFDIPPDKYELSLVSAGGSAGGSA [r18_428_JUSTAS],2.52 ± 0.11 kcal/mol,2.74 ± 0.09 kcal/mol,2.51 ± 0.15 kcal/mol
SAGGSAGGSAGKIIFERDEDGYLRAIVYDPKTKEVYVRRFKVKDGKITEVETERINLKDLSAGGSAGGSAGG [r11_167_TrROS_Hall],2.06 ± 0.049 kcal/mol,2.37 ± 0.078 kcal/mol,2.21 ± 0.1 kcal/mol
SAGGSAGGDSIEFIIPYDDMPKEEAKRRVRWIANGFAEHNPGKPIEIEIHVIPVPPPPSPEDKNSAGGSAGG [r6_729_TrROS],-0.0761 ± 0.16 kcal/mol,-0.467 ± 0.66 kcal/mol,-0.163 ± 0.16 kcal/mol
SAGGSAGGSAGGDKNDLSPGATISTYTNPGSFTVTLPTGETVTLPKTVTTTVTFFDSTNSAGGSAGGSAGGS [r10_643_JUSTAS],0.254 ± 0.072 kcal/mol,0.104 ± 0.14 kcal/mol,0.227 ± 0.08 kcal/mol
SAGGSAGGSAGFEAFVEEIKKDGDYKVEAFVFDNESGIKTLVIVLESPEEDKYEIRTFNISAGGSAGGSAGG [r11_753_TrMRF],0.769 ± 0.038 kcal/mol,0.796 ± 0.24 kcal/mol,0.829 ± 0.14 kcal/mol
SAGGSAGGSAGGSMVVEFSVGDTPIATIPFPGTEEEAKAAVEKLKEEYPSAEVKFTVHDESAGGSAGGSAGG [r7_81_JUSTAS],0.471 ± 0.031 kcal/mol,0.169 ± 0.075 kcal/mol,0.342 ± 0.14 kcal/mol
SAGGSAGGSAGAEITVEYNPETNVLTVTVKVEFTLPDGTKVERTYRATINADGTITIEPESAGGSAGGSAGG [r11_911_TrROS_Hall],3.99 ± 0.27 kcal/mol,5 ± 0.095 kcal/mol,4.97 ± 0.13 kcal/mol
SAGGSAGGSAGIKTESLEEALEYVKKTFPPGTKVEIVVEGDGKPIKITVTVLENGEIKVESAGGSAGGSAGG [r17_69_TrMRF],3.97 ± 0.16 kcal/mol,3.24 ± 0.036 kcal/mol,3.58 ± 0.12 kcal/mol
SAGGSAGGSAGKLVVVRAIDPENPFVVATTSDNRTYVFDSLEELLEQVPEGVPVLFLPTVSAGGSAGGSAGG [r17_295_TrMRF],0.369 ± 0.028 kcal/mol,1.22 ± 0.071 kcal/mol,0.933 ± 0.081 kcal/mol
SAGMVITETEELPDRTITTVKYSDGKVVIETLEYDPNSNVVTKTVTTIDLSNPSVSKTTTTVEPDPAPSAGG [r19_102_JUSTAS],1.15 ± 0.099 kcal/mol,1.81 ± 0.063 kcal/mol,1.62 ± 0.092 kcal/mol
SAGGFKLKIDDIEFHDDYLVIRLKIEVPVNDQTMKFELTLIIPVPPPPPPKPPVDPEEYRDPDGKWHSAGGS [r8_234_TrROS],2.19 ± 0.11 kcal/mol,2.9 ± 0.062 kcal/mol,2.63 ± 0.24 kcal/mol
SAGGSMFKVEEVETLENGEVLAKLTVYLDGKPYPATARIYTLPDGRKVAEIYFPDNPNVSLRIPLTSAGGSA [r2_376_TrMRF],3.91 ± 0.059 kcal/mol,4.14 ± 0.024 kcal/mol,4.1 ± 0.053 kcal/mol
SAGGSELTLTVKVTVTVEVNGKTFTVEATLTLRFRPAPPPPKVRLERDADGNLRVTDANGKTRELRFSAGGS [r16_136_TrROS_Hall],2.42 ± 0.17 kcal/mol,2.8 ± 0.1 kcal/mol,2.61 ± 0.23 kcal/mol
SAGGSAMVVRITTKDGKKIEITVKSVEELLEALKELGVEEVKLEKLPDGKELKLTVTLKDGKIEILSAGGSA [r15_632_TrROS_Hall],3.14 ± 0.087 kcal/mol,2.8 ± 0.077 kcal/mol,2.92 ± 0.054 kcal/mol
SAGGSAGGSAGKKYLIKIEVEKNGKKYTITMSLEELKKLISSPNVKIVKIEIVEVSEEDLSAGGSAGGSAGG [r17_204_TrROS_Hall],4.33 ± 0.15 kcal/mol,5 ± 0.07 kcal/mol,4.98 ± 0.11 kcal/mol
